Earlier results as cited in publication PMC5310643.

Molecular target: κI light chain variable domain (germline) VL (Homo sapiens) (UniProt P01594)
Assay: NMR diffusion

κI light chain variable domain (germline) VL (from UniProt P01594)
Kd: 217 µM
